Read-outs that look alike come from different tables or passages of the source.
Tests used:
Assay in all cases: co-sedimentation
[1] = target: paclitaxel-stabilized microtubules (bovine brain tubulin) (bovine) (UniProt Q6B856)
[2] = target: paclitaxel-stabilized microtubules (bovine brain tubulin) (bovine) (UniProt Q6B856); remark: listed apart in the source
[3] = target: paclitaxel-stabilized microtubules (bovine brain tubulin) (bovine) (UniProt Q6B856); remark: listed apart in the source
[4] = target: paclitaxel-stabilized microtubules (bovine brain tubulin) (bovine) (UniProt Q6B856); remark: listed apart in the source
[5] = target: paclitaxel-stabilized microtubules (bovine brain tubulin) (bovine) (UniProt Q6B856); remark: listed apart in the source

paclitaxel-stabilized microtubules (bovine brain tubulin) (bovine), sequence (Q6B856 whole entry, looked up): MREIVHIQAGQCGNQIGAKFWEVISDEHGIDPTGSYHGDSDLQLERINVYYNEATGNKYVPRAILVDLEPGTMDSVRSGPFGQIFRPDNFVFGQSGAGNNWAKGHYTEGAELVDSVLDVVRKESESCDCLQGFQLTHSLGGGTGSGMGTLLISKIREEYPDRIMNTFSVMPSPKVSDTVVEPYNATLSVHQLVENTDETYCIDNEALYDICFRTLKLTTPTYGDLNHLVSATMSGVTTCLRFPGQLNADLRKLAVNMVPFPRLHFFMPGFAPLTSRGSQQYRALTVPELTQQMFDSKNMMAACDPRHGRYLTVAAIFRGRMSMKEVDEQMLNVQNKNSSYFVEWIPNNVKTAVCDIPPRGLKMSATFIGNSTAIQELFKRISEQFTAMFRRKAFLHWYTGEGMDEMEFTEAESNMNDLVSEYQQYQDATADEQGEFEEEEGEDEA

“Cin8-EL8 (tagless): monomeric Cin8 motor with the loop-8 insert of Eg5 (domain or fragment)” showed a Kd [1] of 3000 nM, a Kd [2] of 2900 nM and a Kd [3] of 100 nM. The stoichiometry N [3] was 1.4 and the stoichiometry N (motor bound per tubulin dimer) [3] was 1.

For “Eg5-CL8-MBP (MBP-His6-TEV-Eg5-CL8) (from UniProt P27895 261-359) (domain or fragment)”, the Kd [4] was 100 nM, the Kd [3] was 100 nM and the stoichiometry N (motor per tubulin dimer) [3] was 1.

“Eg5-KL8: monomeric Eg5 motor domain with the loop-8 insert of Kip1 (domain or fragment)” gave a Kd [3] of 100 nM, a stoichiometry N [3] of 1.3 and a Kd [5] of 440 nM.

Work on “wild type monomeric Cin8 motor domain with thioredoxin tag (Cin8-trx) (domain or fragment)” yielded a Kd [3] of 7 nM and a stoichiometry N [3] of 2.2.

— paper doi:10.1101/525329
